Experimental data as given in article PMC6351565.
Numbering of substitutions follows the chain as printed. Names and notes keep the numbering of the source. Each block holds one binder with its values, some of them ahead of it.

Target: T1, endogenous 14-3-3 (all isoforms included), P27348
T1 chain: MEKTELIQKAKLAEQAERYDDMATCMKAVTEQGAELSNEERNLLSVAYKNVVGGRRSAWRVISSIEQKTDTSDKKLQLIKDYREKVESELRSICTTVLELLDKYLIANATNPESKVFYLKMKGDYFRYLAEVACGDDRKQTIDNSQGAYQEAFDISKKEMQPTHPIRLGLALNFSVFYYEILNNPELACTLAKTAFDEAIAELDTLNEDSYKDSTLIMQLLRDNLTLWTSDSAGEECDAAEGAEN
Test: coimmunoprecipitation (quantified western blot)
Conditions: chain shown with the change; serum-starved cells; parent: est. 1.0; read off a plot

B2: IRSp53-FLAG (wild type), natively phosphorylated, Q9UQB8-4 S452A; S453A; S454A; T455A (protein)
chain: MSLSRSEEMHRLTENVYKTIMEQFNPSLRNFIAMGKNYEKALAGVTYAAKGYFDALVKMGELASESQGSKELGDVLFQMAEVHRQIQNQLEEMLKSFHNELLTQLEQKVELDSRYLSAALKKYQTEQRSKGDALDKCQAELKKLRKKSQGSKNPQKYSDKELQYIDAISNKQGELENYVSDGYKTALTEERRRFCFLVEKQCAVAKNSAAYHSKGKELLAQKLPLWQQACADPSKIPERAVQLMQQVASNGATLPSALSASKSNLVISDPIPGAKPLPVPPELAPFVGRMSAQESTPIMNGVTGPDGEDYSPWADRKAAQPKSLSPPQSQSKLSDSYSNTLPVRKSVTPKNSYATTENKTLPRSSSMAAGLERNGRMRVKAIFSHAAGDNSTLLSFKEGDLITLLVPEARDGWHYGESEKTKMRGWFPFSYTRVLDSDGSDRLHMSLQQGKAAAAGNLLDKDDLAIPPPDYGAASRAFPAQTASGFKQRPYSVAVPAFSQGLDDYGARSMSSGSGTLVSTV
ratio to parent: 0.98

B4: IRSp53-FLAG (wild type), natively phosphorylated, Q9UQB8-4 S366A (protein)
chain: B2 chain with S366A, A452S, A453S, A454S, A455T
ratio to parent: 0.62

The remaining lines, values ahead:

ratio to parent: 0.05
B1: IRSp53-FLAG (wild type), natively phosphorylated, Q9UQB8-4 T340A; T360A (protein)
chain: MSLSRSEEMHRLTENVYKTIMEQFNPSLRNFIAMGKNYEKALAGVTYAAKGYFDALVKMGELASESQGSKELGDVLFQMAEVHRQIQNQLEEMLKSFHNELLTQLEQKVELDSRYLSAALKKYQTEQRSKGDALDKCQAELKKLRKKSQGSKNPQKYSDKELQYIDAISNKQGELENYVSDGYKTALTEERRRFCFLVEKQCAVAKNSAAYHSKGKELLAQKLPLWQQACADPSKIPERAVQLMQQVASNGATLPSALSASKSNLVISDPIPGAKPLPVPPELAPFVGRMSAQESTPIMNGVTGPDGEDYSPWADRKAAQPKSLSPPQSQSKLSDSYSNALPVRKSVTPKNSYATTENKALPRSSSMAAGLERNGRMRVKAIFSHAAGDNSTLLSFKEGDLITLLVPEARDGWHYGESEKTKMRGWFPFSYTRVLDSDGSDRLHMSLQQGKSSSTGNLLDKDDLAIPPPDYGAASRAFPAQTASGFKQRPYSVAVPAFSQGLDDYGARSMSRNPFAHVQLKPTVTNDRCDLSAQGPEGREHGDGSARTLAGR

ratio to parent: 0.12
B3: IRSp53-FLAG (wild type), natively phosphorylated, Q9UQB8-4 T360A (protein)
chain: B2 chain with T360A, A452S, A453S, A454S, A455T

ratio to parent: 0.1
B5: IRSp53-FLAG (wild type), natively phosphorylated, Q9UQB8-4 T340A (protein)
chain: B2 chain with T340A, A452S, A453S, A454S, A455T
